First the molecules themselves.
T1: cynomolgus monkey MSLN protein (Harbour BioMed, Batch #: 2019072202) (cynomolgus monkey)
T1 construct: also called recombinant cynomolgus monkey MSLN ECD His-tag protein
T1 chain: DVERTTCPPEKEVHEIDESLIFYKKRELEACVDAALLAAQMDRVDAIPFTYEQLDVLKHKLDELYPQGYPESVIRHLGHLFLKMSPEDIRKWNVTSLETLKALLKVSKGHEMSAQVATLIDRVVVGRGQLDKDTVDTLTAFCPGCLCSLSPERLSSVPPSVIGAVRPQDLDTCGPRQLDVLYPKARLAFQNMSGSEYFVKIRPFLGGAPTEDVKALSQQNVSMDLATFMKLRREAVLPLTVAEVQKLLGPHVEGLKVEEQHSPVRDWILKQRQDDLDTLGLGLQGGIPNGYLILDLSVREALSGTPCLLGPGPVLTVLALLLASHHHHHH

B1: PR300186 (antibody, human IgG1, kappa, V domains shown)
VH: QVQLQESGPGLVKPSETLSLTCTVSGGSINNYYWSWVRQPPGKGLEWIGYIFYSGSTNSNPSLKSRVIISVDTSKNQFSLKLSSVTAADTAVYYCAREVGRIAVAGWFFDLWGRGTLVTVSS
VL: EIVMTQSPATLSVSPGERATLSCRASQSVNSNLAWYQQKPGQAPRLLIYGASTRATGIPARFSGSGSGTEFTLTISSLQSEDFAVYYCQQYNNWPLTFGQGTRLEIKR
notes: Initial antibody from Harbour H2L2 transgenic mice; also called anti-MSLN antibody PR300186
B2: PR300186-2 (antibody, human IgG1, kappa, V domains shown)
VH: B1 VH with N30Q
VL: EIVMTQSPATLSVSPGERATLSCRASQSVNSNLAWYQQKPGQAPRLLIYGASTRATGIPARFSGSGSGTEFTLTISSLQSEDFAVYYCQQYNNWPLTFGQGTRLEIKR
notes: PTM variant of PR300186: Heavy chain N30Q
B3: PR300186-7 (antibody, human IgG1, kappa, V domains shown)
VH: B1 VH with N30Q
VL: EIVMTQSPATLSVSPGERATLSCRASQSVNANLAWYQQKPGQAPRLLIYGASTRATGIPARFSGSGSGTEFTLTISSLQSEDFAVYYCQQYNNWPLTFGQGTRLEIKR
notes: PTM variant of PR300186: Heavy chain N30Q, Light chain S31A
B4: PR300186-8 (antibody, human IgG1, kappa, V domains shown)
VH: B1 VH with N30Q, S59A
VL: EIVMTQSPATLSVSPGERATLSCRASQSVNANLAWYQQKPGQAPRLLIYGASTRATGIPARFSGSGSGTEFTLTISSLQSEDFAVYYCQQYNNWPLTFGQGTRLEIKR
notes: PTM variant of PR300186: Heavy chain N30Q and S59A, Light chain S31A
B5: PR300186-4 (antibody, human IgG1, kappa, V domains shown)
VH: B1 VH with N30Q, N58Q
VL: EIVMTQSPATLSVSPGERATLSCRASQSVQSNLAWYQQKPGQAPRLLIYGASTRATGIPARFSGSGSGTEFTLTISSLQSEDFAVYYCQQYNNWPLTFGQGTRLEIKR
notes: PTM variant of PR300186: Heavy chain N30Q and N58Q, Light chain N30Q
B6: PR300186-5 (antibody, human IgG1, kappa, V domains shown)
VH: B1 VH
VL: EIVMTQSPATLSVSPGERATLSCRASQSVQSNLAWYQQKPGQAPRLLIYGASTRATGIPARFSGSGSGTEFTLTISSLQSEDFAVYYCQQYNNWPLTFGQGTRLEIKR
notes: PTM variant of PR300186: Light chain N30Q
B7: PR300186-9 (antibody, human IgG1, kappa, V domains shown)
VH: B1 VH
VL: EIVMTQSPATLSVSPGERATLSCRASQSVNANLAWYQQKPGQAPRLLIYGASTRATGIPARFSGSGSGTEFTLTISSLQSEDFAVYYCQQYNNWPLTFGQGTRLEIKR
notes: PTM variant of PR300186: Light chain S31A
B8: PR300186-6 (antibody, human IgG1, kappa, V domains shown)
VH: B1 VH with N30Q, S59A
VL: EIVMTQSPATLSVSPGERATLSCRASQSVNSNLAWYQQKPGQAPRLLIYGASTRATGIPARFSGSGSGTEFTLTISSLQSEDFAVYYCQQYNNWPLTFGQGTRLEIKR
notes: PTM variant of PR300186: Heavy chain N30Q and S59A
B9: PR300186-3 (antibody, human IgG1, kappa, V domains shown)
VH: B1 VH with N30Q, N58Q
VL: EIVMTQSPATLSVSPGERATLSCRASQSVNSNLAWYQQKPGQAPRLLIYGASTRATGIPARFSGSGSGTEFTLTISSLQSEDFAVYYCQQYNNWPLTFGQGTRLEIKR
notes: PTM variant of PR300186: Heavy chain N30Q and N58Q
B10: PR300186-10 (antibody, human IgG1, kappa, V domains shown)
VH: B1 VH with N30Q, N58Q
VL: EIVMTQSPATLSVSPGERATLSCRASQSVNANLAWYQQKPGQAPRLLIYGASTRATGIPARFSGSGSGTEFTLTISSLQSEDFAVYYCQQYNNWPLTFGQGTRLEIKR
notes: PTM variant of PR300186: Heavy chain N30Q and N58Q, Light chain S31A

Positions count from the first letter of the chain named. Names and notes keep the numbering of the source.

Usually EC50 stands for the midpoint of the concentration-response curve.

T2 sequence (Q13421 other isoform, or with tags, fused parts or gaps limits assumed): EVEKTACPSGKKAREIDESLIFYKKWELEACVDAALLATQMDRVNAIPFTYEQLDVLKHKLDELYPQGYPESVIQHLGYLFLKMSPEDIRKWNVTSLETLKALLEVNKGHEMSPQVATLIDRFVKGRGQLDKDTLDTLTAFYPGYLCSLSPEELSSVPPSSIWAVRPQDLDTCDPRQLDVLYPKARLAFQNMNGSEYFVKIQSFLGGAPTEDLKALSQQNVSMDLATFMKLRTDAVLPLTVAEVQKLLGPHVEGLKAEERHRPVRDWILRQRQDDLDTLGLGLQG

One assay concerns the target T2, Human MSLN (Acro Biosystems, Cat #: MSN-H5223) (human, UniProt Q13421 296-580, limits assumed).
T2 construct: extracellular domain; Bought protein; also called human MSLN protein; recombinant human MSLN ECD His-tag protein; not shown: His tag
Description: ELISA, human MSLN protein coated on plate. (In an ELISA, binding on a coated surface is turned into a signal by an enzyme label.)
For the molecule B1, the response was half-maximal at 0.12 nM (EC50) and the Span is 3.42.
For the molecule B2, the half-maximal effective concentration (EC50) came out at 0.14 nM and the Span is 3.36.
The matching figures for B3: 0.14 nM and 3.85.
Take B4: the EC50 amounted to 0.13 nM and the Span is 3.87.
Consider B5, for which the EC50 was 0.18 nM and the Span worked out at 3.47.
In the same order, the values of B6 are 0.22 nM and 3.61.
The molecule B7 returned an EC50 of 0.11 nM and a Span of 3.85.
In the same order, the values of B8 are 0.21 nM and 3.66.
Consider B9, for which it took 0.1 nM to reach a half-maximal effect (EC50) and the Span is 3.25.
In the same order, the values of B10 are 0.1 nM and 3.71.

The target of a further assay is T1, cynomolgus monkey MSLN protein (Harbour …). The assay is described as follows: ELISA, cynomolgus monkey MSLN protein coated on plate.
B1 yielded an EC50 of 0.05 nM and a Span of 2.33.
The molecule B2 displayed an EC50 of 0.05 nM and a Span of 2.43.
With B3, the EC50 was determined as 0.04 nM and the Span is 2.24.
Turning to B4, the midpoint of the response, the EC50, lay at 0.04 nM and the Span turned out to be 2.18.
B5: the concentration for a half-maximal effect (EC50) was 0.07 nM and the Span stood at 2.53.
The matching figures for B6: 0.07 nM and 2.7.
Consider B7, for which the EC50 is 0.05 nM and the Span turned out to be 2.19.
As to B8, the EC50 stood at 0.07 nM and the Span turned out to be 2.67.
With B9, a half-maximal effect (EC50) was put at 0.05 nM and the Span was 2.36.
The molecule B10 gave an EC50 of 0.04 nM and a Span of 2.19.

Source of the values: EP4566632A1 (Nona Biosciences (Suzhou) Co., Ltd., dated 2024).
